The record followed here is publication PMC12711577.

Assay [1] concerns the target DDM1 N terminus (1–148) with K102E and K120E (Arabidopsis thaliana) (UniProt Q9XFH4). Kind of assay: pull-down; in vitro pulldown of recombinant CDCA7α N terminus (1-136) with DDM1 N terminus (1-148); blots quantified, averages of nine (CDCA7α mutations) and five (DDM1 mutations) replicates.
Assay [2] addresses DDM1 N terminus (1–148) (Arabidopsis thaliana) (UniProt Q9XFH4). The assay is described as above.
Assay [3] concerns the target T1, CDCA7α N terminus (1–136).
T1 chain: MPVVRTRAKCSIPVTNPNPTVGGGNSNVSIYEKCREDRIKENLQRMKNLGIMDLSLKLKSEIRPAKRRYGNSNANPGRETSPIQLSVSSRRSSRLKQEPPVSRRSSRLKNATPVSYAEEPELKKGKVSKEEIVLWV
Kind of assay: pull-down (GST pulldown, anti-His western blot, quantified). The settings on record: chain shown with the change; n = 5 pulldown replicates; parent: est. 98; read off a plot. Background: A western blot detects proteins with antibodies after separation by electrophoresis.

Turning to “CDCA7α N terminus (1–136) (domain or fragment)”, the loss of binding relative to the WT in assay [1] came to 50 % loss.
Consider “CDCA7α N terminus (1–136) with E32K, E41K, E61K and I62A (domain or fragment)”, for which the binding relative to the WT in assay [2] was 50 % of the WT.

B1: DDM1 N terminus (1–148), Q9XFH4 K102E; K120E; F116A; I124A (protein)
chain: MVSLRSRKVIPASEMVSDGKTEKDASGDSPTSVLNEEENCEEKSVTVVEEEILLAKNGDSSLISEAMAQEEEQLLKLREDEEKANNAGSAVAPNLNETQFTELDELLTQTQLYSEALLEEMEDATINGIESESQKAEPEKTGRGRKRK
In the case of B1, in assay [3], the response worked out at 4.
